According to paper PMC2892321:

Biological target: postsynaptic density 95 (PSD95), wild type (mouse (endogenous in hippocampus and spinal cord)) (UniProt Q62108)
Assay: co-IP

Chain of postsynaptic density 95 (PSD95), wild type (mouse (endogenous in hippocampus and spinal cord)) (Q62108 whole entry): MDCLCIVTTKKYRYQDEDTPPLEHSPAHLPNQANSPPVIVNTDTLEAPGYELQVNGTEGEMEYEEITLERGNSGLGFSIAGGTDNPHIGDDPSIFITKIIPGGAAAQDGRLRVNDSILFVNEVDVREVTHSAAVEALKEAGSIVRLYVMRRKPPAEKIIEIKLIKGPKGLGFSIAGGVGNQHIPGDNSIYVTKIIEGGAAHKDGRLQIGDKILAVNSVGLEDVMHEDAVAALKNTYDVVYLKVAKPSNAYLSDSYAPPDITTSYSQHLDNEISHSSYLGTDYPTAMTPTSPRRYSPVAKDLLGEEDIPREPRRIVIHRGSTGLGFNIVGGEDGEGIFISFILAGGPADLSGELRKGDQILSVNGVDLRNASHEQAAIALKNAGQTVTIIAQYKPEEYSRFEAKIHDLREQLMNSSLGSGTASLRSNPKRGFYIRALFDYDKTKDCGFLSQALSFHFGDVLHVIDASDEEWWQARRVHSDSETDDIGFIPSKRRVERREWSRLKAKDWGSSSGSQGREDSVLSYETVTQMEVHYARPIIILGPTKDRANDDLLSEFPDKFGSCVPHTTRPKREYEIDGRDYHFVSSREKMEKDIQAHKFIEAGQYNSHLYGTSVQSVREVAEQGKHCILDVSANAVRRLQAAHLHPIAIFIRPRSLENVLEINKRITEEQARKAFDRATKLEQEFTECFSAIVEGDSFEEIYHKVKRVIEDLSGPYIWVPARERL

Substance: phosphatidylinositol-3-kinase-C2α (PI(3)K-C2α) (from UniProt Q61194 1-1686) (enzyme)
- PI(3)K-C2α/PSD95 ratio (densitometry), ipsilateral to formalin: 0.053
- PI(3)K-C2α/PSD95 ratio (densitometry), naive: 0.019
